Tests used:
Assay in all cases: SEC + other: dynamic light scattering
[1] = biological target: G. stearothermophilus GerD D118A (Geobacillus stearothermophilus)
[2] = biological target: G. stearothermophilus GerD F86P (Geobacillus stearothermophilus)
[3] = biological target: G. stearothermophilus GerD M36P (Geobacillus stearothermophilus)
[4] = biological target: G. stearothermophilus GerD M111P (Geobacillus stearothermophilus)
[5] = biological target: G. stearothermophilus GerD M138P (Geobacillus stearothermophilus)
[6] = biological target: G. stearothermophilus GerD Q122A (Geobacillus stearothermophilus)
[7] = biological target: G. stearothermophilus GerD R148A (Geobacillus stearothermophilus)
[8] = biological target: G. stearothermophilus GerD ΔH01-02 (Geobacillus stearothermophilus)
[9] = biological target: G. stearothermophilus GerD ΔH5-8 (Geobacillus stearothermophilus)
[10] = biological target: G. stearothermophilus GerD ΔH6-8 (Geobacillus stearothermophilus)

Q: For “G. stearothermophilus GerD D118A (from UniProt A0ACH1E844 1-195) (natural protein)”, which stoichiometry N [1] is on record?
A: 3

Q: Which stoichiometry N [2] does the source give for “G. stearothermophilus GerD F86P (from UniProt A0ACH1E844 1-195) (natural protein)” here?
A: 3

Q: With “G. stearothermophilus GerD M36P (from UniProt A0ACH1E844 1-195) (natural protein)” as the substance, how does the stoichiometry N [3] read?
A: 3

Q: How did the stoichiometry N [4] turn out when “G. stearothermophilus GerD M111P (from UniProt A0ACH1E844 1-195) (natural protein)” was run?
A: 3

Q: With “G. stearothermophilus GerD M138P (from UniProt A0ACH1E844 1-195) (natural protein)” as the substance, how does the stoichiometry N [5] read?
A: 3

Q: How did the stoichiometry N [6] turn out when “G. stearothermophilus GerD Q122A (from UniProt A0ACH1E844 1-195) (natural protein)” was run?
A: 3

Q: “G. stearothermophilus GerD R148A (from UniProt A0ACH1E844 1-195) (natural protein)” was tested. Which stoichiometry N [7] did it give?
A: 3

Q: With “G. stearothermophilus GerD ΔH01-02 (from UniProt A0ACH1E844 60-180) (domain or fragment)” as the substance, how does the stoichiometry N [8] read?
A: 3

Q: For “G. stearothermophilus GerD ΔH5-8 (from UniProt A0ACH1E844 1-120) (domain or fragment)”, which stoichiometry N [9] is on record?
A: 3

Q: How did the stoichiometry N [10] turn out when “G. stearothermophilus GerD ΔH6-8 (from UniProt A0ACH1E844 1-133) (domain or fragment)” was run?
A: 3

Reference: article PMC4038265
